In US8591913B2, “Methods of decreasing adipose tissue” (Toru Miyazaki, priority 2009, dated 2013):

Legend:
endogenous FAS = target: T1, endogenous FAS (Mus musculus, UniProt P19096); assay: Co-precipitation of endocytosed HA-tagged rAIM with endogenous FAS from adipose tissue lysates; format: binding; conditions: HA-tagged rAIM injected into AIM-/- mice, adipose tissue lysate, anti-HA antibody, Western blotting for FAS
T1 construct: from tissue; host or cells: epididymal adipose tissue of obese AIM-/- mice
Protocol: Further, the endocytosed rAIM was precipitated using lysates derived from those adipose tissues to examine whether endogenous FAS was co-precipitated or not. That is, the presence of FAS in the precipitate was analyzed by Western blotting using HA-tagged rAIM and an anti-HA antibody.
It was confirmed that AIM was bound to FAS both in vivo and in vitro. That is, mouse rAIM tagged with HA in a total amount of 100 μg was directly injected in several sites in the epididymal adipose tissue in the obese AIM^−/− mouse. At 3 hours after the injection, the epididymal adipose tissues were collected. Then, endocytosed rAIM was precipitated from a lysate of the adipose tissues using an anti-HA antibody. Then, it was analyzed by immunoblotting (WB) whether FAS was present in the resulting precipitate.

[1] = system: adipocytes in the adipose tissue of AIM-/- mice; assay: Endocytosis of injected rAIM into adipose tissue of AIM-/- mice (histology); format: in vivo, mouse; conditions: 3 hours
Protocol: Further, mouse rAIM was directly injected into epididymal adipose tissue in obese AIM^−/− mice, and the adipose tissue was histologically analyzed. That is, total 100 μg of rAIM was directly injected into several sites of the epididymal adipose tissue. At 3 hours after the injection, tissue sections from the epididymal adipose tissue were made, and the tissue sections were stained with the anti-AIM antibody and the anti-macrophage antibody.
In addition, rAIM was systemically administered by intravenous injection to AIM^−/− mice, and subsequently adipose tissues were histologically analyzed. That is, 200 μg of rAIM was systemically administered by the intravenous injection to the AIM^−/− mice. At 3 hours after the injection, tissue sections were made from the epididymal adipose tissue, and the tissue sections were stained with the anti-AIM antibody and the anti-macrophage antibody.

CD36 = target: T2, CD36 (Mus musculus, UniProt Q08857); assay: Internalization of AIM into 3T3-L1 adipocytes with or without CD36 neutralizing antibody; format: cell-based
T2 construct: endogenous in cells; host or cells: differentiated 3T3-L1 adipocytes
Protocol: Further, in order to confirm that AIM is internalized via CD36, a neutralizing antibody which inhibited the binding of a ligand to CD36 was simultaneously loaded when the 3T3-L1 adipocyte differentiated by the above-mentioned differentiation induction was loaded with AIM. Subsequently, the cultured 3T3-L1 adipocytes were collected, and stained using an anti-AIM antibody. The 3T3-L1 adipocytes loaded with AIM alone without loading the neutralizing antibody against CD36 were cultured and stained in the same manner as described above.

FAS domains = assay: Co-immunoprecipitation of FLAG-tagged FAS regions with HA-tagged AIM in HEK293T cells; format: binding; conditions: HA-tagged mouse AIM
Text: Further, it was attempted to map a binding region of FAS to AIM. FAS has the following distinct seven functional domains, i.e., ketoacyl synthase (KS), malonyl/acetyl transferase (MAT), dehydrase (DH), enoylreductase (ER), ketoreductase (KR), acyl carrier protein (ACP), and thioesterase (TE), as illustrated in FIG. 34A. There is a central core (CC) between the DH domain and the ER domain. It is believed that the central core has no known catalytic function and plays a structural role in stabilization of the dimer. FIG. 34A illustrates FAS dimerized through head-to-tail interaction and major functions of its respective regions.
Thus, an association of each region in FAS tagged with FLAG with AIM tagged with HA was examined by a co-precipitation study. That is, each domain from FAS tagged with FLAG at the N terminus was expressed in HEK293T cells in which mouse AIM tagged with HA was stably expressed. Then, the association of each region with AIM was examined by a co-immunoprecipitation study using an anti-FLAG antibody and an anti-HA antibody. However, AIM was not bound to an N terminal region including the KS and MAT domains (see FIG. 34A) involved in initial acyl chain assembly (i.e., condensation of acetyl group and malonyl group to 3-ketobutyryl-ACP associated with release of carbon dioxide). Therefore, it was thought that AIM affected elongation of a fatty acid chain (which involves ER and DH) and the release of synthesized palmitate (which depends on TE). Over-expression of ER or KR led to death of many cells. This caused the reduction of the signals in WB using the cell lysates of them [lower panel in FIG. 34B, lanes: ER and KR).

FAS = target: T3, FAS (Mus musculus, UniProt P19096); assay: FAS enzyme activity in lysates of loaded 3T3-L1 cells (malonyl-CoA consumption); format: cell-based; conditions: mouse AIM 5 μg/mL
T3 construct: cell lysates were prepared, and the enzyme activity of FAS was measured; endogenous in cells; host or cells: 3T3-L1 cells (differentiating or differentiated)
Protocol: Whether AIM affected an enzyme activity of FAS or not was examined.
In addition, as a schedule (f) similar to the above-mentioned schedule (e), AIM was loaded for 4 days (day 8 to day 12) after the 3T3-L1 cells differentiated, subsequently the cells were collected on the 10th day (day 12) after the initiation of the differentiation induction, cell lysates were prepared, and the enzyme activity of FAS was measured. The enzyme activity of FAS was measured based on a consumption amount of malonyl-CoA.
In addition, using a FAS inhibitor (C75) in place of AIM, the FAS inhibitor at a concentration of 25 μM was loaded according to the schedules (d) and (f), and as was the case with the above-mentioned AIM, the cells were collected on the 2nd day (day 4: schedule (d)) and 10th day (day 12: schedule (f)) after the initiation of the differentiation induction, and the enzyme activity of FAS was measured.
Further, for comparison, the cells cultured without loading AIM in the above-mentioned schedule (a) were also collected at times of the 2nd day (day 4) and 10th day (day 12) after the initiation of the differentiation induction, and the enzyme activity of FAS was measured.
FIG. 11B and FIG. 11C illustrate the results of measuring the FAS enzyme activity (Fatty acid synthase activity) (nmol NADPH/min/mg protein). FIG. 11B illustrates the results obtained on the 2nd day (day 4) after the initiation of the differentiation induction in the case of loading no AIM according to the schedule (a) (None), the case of loading AIM according to the schedule (d) (AIM (5 μg/mL)), and the case of loading the FAS inhibitor according to the schedule (d) (C75 (25 μM)). FIG. 11C illustrates the results obtained on the 10th day (day 12) after the initiation of the differentiation induction in the case of loading no AIM according to the schedule (a) (None), the case of loading AIM according to the schedule (f) (AIM (5 μg/mL)), and the case of loading the FAS inhibitor according to the schedule (f) (C75 (25 μM)).

T3 sequence (P19096 whole entry): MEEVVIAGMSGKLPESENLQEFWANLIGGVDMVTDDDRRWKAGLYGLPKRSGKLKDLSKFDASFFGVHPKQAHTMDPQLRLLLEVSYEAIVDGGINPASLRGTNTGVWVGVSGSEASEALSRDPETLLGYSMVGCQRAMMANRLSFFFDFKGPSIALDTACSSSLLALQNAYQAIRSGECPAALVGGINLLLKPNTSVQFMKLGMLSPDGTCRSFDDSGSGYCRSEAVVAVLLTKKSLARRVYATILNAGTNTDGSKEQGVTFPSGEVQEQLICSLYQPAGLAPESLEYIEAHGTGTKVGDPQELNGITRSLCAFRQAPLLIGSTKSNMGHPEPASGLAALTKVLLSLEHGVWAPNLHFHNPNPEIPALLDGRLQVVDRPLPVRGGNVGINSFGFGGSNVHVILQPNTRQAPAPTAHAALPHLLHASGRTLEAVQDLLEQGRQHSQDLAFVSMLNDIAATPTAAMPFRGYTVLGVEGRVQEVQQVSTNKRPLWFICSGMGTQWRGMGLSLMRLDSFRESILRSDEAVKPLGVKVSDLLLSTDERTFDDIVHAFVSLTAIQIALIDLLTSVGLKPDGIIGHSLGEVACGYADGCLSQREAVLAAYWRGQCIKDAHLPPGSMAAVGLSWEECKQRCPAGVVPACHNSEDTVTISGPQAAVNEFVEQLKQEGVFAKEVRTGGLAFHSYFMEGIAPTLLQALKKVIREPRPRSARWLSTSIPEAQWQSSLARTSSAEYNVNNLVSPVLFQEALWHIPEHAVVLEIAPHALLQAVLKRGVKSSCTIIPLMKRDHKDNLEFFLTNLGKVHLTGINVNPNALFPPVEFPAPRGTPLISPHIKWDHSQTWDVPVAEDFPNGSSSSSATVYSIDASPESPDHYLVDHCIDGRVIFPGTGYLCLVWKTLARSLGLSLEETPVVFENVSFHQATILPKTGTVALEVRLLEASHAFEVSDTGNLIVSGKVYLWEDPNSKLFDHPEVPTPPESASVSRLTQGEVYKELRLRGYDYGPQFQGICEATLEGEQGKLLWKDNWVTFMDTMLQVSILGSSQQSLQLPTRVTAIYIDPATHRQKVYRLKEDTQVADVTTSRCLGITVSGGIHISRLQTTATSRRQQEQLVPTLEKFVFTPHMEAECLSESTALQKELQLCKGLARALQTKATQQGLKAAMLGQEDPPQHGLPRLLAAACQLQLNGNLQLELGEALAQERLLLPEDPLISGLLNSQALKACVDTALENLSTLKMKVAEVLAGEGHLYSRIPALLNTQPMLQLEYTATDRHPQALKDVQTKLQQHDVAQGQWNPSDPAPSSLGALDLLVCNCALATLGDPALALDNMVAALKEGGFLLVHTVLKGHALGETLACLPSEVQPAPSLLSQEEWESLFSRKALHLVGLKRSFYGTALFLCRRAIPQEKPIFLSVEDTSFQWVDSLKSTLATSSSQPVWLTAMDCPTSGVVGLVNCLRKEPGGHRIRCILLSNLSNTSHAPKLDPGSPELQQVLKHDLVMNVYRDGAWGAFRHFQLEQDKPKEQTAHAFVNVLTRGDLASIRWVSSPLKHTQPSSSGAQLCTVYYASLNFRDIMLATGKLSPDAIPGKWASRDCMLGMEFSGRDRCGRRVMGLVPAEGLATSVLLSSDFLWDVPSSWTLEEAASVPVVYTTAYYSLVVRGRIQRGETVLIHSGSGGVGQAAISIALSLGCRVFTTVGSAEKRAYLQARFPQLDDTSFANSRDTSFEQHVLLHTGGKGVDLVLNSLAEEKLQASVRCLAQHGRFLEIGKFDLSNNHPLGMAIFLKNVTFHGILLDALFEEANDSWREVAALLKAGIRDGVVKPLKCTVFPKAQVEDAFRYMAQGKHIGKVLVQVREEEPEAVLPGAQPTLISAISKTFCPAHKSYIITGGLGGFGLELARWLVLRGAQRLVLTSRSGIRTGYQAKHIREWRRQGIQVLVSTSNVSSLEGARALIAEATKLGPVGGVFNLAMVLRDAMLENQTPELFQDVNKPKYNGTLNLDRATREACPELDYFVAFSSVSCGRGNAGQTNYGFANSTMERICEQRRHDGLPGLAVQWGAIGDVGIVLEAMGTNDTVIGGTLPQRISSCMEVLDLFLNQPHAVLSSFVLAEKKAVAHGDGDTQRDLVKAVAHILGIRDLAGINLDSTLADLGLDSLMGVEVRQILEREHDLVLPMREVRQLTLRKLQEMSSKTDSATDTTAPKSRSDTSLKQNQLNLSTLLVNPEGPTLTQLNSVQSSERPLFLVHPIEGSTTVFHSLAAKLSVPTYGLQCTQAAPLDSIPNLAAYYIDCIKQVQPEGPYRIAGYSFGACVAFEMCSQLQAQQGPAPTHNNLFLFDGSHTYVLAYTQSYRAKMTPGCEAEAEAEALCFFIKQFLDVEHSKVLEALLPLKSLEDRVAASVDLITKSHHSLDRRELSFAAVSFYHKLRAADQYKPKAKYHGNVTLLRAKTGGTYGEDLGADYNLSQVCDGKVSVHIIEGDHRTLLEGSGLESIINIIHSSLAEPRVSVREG
T2 sequence (Q08857 whole entry): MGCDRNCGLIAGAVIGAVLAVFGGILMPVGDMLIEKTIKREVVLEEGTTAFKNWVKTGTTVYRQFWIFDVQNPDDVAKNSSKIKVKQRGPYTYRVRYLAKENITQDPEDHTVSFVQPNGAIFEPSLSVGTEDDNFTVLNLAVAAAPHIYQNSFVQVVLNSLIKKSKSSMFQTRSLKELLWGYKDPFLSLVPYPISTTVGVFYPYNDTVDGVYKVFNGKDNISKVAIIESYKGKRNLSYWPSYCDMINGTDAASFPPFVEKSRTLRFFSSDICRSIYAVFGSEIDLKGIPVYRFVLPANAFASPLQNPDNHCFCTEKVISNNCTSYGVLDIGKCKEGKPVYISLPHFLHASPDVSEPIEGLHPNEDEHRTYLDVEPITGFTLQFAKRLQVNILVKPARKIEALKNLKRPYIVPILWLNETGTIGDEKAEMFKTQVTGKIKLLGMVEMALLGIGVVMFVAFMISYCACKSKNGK
T1 sequence (P19096 whole entry): as the sequence (P19096 whole entry) above

B1: mouse AIM: protein consisting of the amino acid sequence shown in SEQ ID NO: 5; recombinant, purified from HEK293T culture supernatant (protein)
chain: MAPLFNLMLAILSIFVGSCFSESPTKVQLVGGAHRCEGRVEVEHNGQWGTVCDDGWDRRDVAVVCRELNCGAVIQTPRGASYQPPASEQRVLIQGVDCNGTEDTLAQCELNYYVFDCSHEEDAGAQCENPDSDLLFIPEDVRLVDGPGHCQGRVEVLHQSQWSTVCKAGWNLQVSKVVCRQLGCGRALLTYGSCNKNTQGKGPIWMGKMSCSGQEANLRSCLLSRLENNCTHGEDTWMECEDPFELKLVGGDTPCSGRLEVLHKGSWGSVCDDNWGEKEDQVVCKQLGCGKSLHPSPKTRKIYGPGAGRIWLDDVNCSGKEQSLEFCRHRLWGYHDCTHKEDVEVICTDFDV
modifications: mouse
notes: recombinant, purified from HEK293T culture supernatant
Endogenous FAS
  co-precipitation of endocytosed rAIM and endogenous FAS: co-precipitated
[1]; 200 μg rAIM intravenous injection
  staining of macrophages in the adipose tissues with the anti-AIM antibody: also stained
[1]; 200 μg rAIM intravenous injection, levels lower than after direct injection
  signals from the endocytosed rAIM in the adipocytes in the adipose tissues: detected
[1]; total 100 μg mouse rAIM directly injected into epididymal adipose tissue of obese AIM-/- mice
  endocytosis of exogenous rAIM into adipocytes in the adipose tissue: endocytosed into adipocytes

B2: AIM: apoptosis inhibitor of macrophage, secretory protein with three SRCR domains; recombinant mouse and human AIM in Example 2, mouse AIM in Examples 3-16 (protein)
chain: ESPTKVQLVGGAHRCEGRVEVEHNGQWGTVCDDGWDRRDVAVVCRELNCGAVIQTPRGASYQPPASEQRVLIQGVDCNGTEDTLAQCELNYYVFDCSHEEDAGAQCENPDSDLLFIPEDVRLVDGPGHCQGRVEVLHQSQWSTVCKAGWNLQVSKVVCRQLGCGRALLTYGSCNKNTQGKGPIWMGKMSCSGQEANLRSCLLSRLENNCTHGEDTWMECEDPFELKLVGGDTPCSGRLEVLHKGSWGSVCDDNWGEKEDQVVCKQLGCGKSLHPSPKTRKIYGPGAGRIWLDDVNCSGKEQSLEFCRHRLWGYHDCTHKEDVEVICTDFDV
CD36; neutralizing antibody against CD36 loaded simultaneously
  internalization of AIM into the cells: not observed
CD36; neutralizing antibody against CD36 not loaded
  internalization of AIM into the cells: had been internalized into the cells
FAS domains; FLAG-tagged domain
  binding to the CC (central core) domain of FAS: specifically bound
  binding to the DH domain of FAS: specifically bound
  binding to the ER domain of FAS: specifically bound
  binding to the TE domain of FAS: specifically bound
FAS domains; FLAG-tagged region
  binding to the N terminal region of FAS including the KS and MAT domains: not bound
FAS; schedule (d): day 2 to day 4, cells collected day 4, compared with no AIM
  enzyme activity of FAS: remarkably reduced
FAS; schedule (f): day 8 to day 12, cells collected day 12, compared with no AIM
  enzyme activity of FAS: remarkably reduced
